Assay [1] has as its target chicken Ten2^ecto wild type (residues 596-2802) (chicken, UniProt Q9DER5 596-2802). In words: SPR. (In general: Surface plasmon resonance follows binding to a sensor surface in real time, without labels.)
The target of assay [2] is chicken Ten2^ecto P1680L mutant (residues 596-2802) (chicken, UniProt Q9DER5 596-2802, P1680L). Put plainly: SPR.

B1: mouse Lphn2^Lec (Latrophilin 2 lectin domain, residues 30-137) (domain or fragment)
chain: ALPFGLVRRELSCEGYSIDLRCPGSDVIMIESANYGRTDDKICDADPFQMENTDCYLPDAFKIMTQRCNNRTQCIVVTGSDVFPDPCPGTYKYLEVQYECVPYSKMLV
modifications: biotinylated enzymatically in vivo at a C-terminal AviTag
As for B1, the Kd stood at 790 nM in assay [1] and 740 nM in assay [2].

For orientation: Kd means the equilibrium constant for the complex coming apart.

Values taken from paper PMC5851990 (2018).
